From the DeepSol protein solubility set

test: soluble on expression in E. coli; label from the status in PepcDB or PDB records

Sequence | soluble on expression in E. coli
MSLATKFPKNFKLATATAAYQIEGAKDLNGRGFSTWDAIRLEPGRILDNSDPDLSCDGLLKYKEDVALLAEIGVTNYRFSISWSRILPDGTLSTINEEGIKFYRDLCLLLKENNIEPVVTLFHFDMPLAIYDNGTAWLNRENCEHFEKFADLCFQKFGDLVKTWITYNEINCQAWGSIVKVEGEFWLCPERPEIENHKQAPYFGAANMLLTHAKIYRNYDQNYKPTQHGILGITNGGRFCFPATDSQEDIEACNRARDWLFNFTIEPILSGSGDFPVLMRERMPFIPKFSEEEKEIIKGSTDFIGINYYLSFLVRAPKDGEKASSQSQHDGGYVFVEGKWDKICGETWIRYAPDGLLKILRYVKEKYANTPVFITENGCMDIVGQDQEDAFHDQHRIDYISGHLEAVAKALDEGCNVIGYTVWTLMDNFEWDDGFELKFGLCEVDFESPDKTRTMKKSAYFYKEFIKEFKDFHGI | not soluble
MSLCAPNTGRFLLTGTPLPMLSYRHSFHAGNHADVLKHTVQSLIIESLKEKDKPFLYLDTHAGAGRYQLGSEHAERTGEYLEGIARIWQQDDLPAELEAYINVVKHFNRSGQLRYYPGSPLIARQLLREQDSLQLTELHPSDYPLLRSEFQKDSRARVEKADGFQQLKAKLPPVSRRGLILIDPPYEMKTDYQAVVSGIAEGYKRFATGTYALWYPVVLRQQIKRMIHDLEATGIRKILQIELAVLPDSDRRGMTASGMIVINPPWKLEQQMNNVLPWLHSKLVPAGTGHATVSWIVPEEGHHHHHH | soluble
MSLCQLLGMNCNTPTDIMFSFEGFRRRGGITDHHADGFGIGFFEGKGVRLFHDDKPSVNSPVADLVRAYQIKSENVIAHIRKASQGQTSLANTHPFMREMWGGYWLFAHNGHLIDFFPEQGEFFHPVGTTDSERAFCHILNRLRTRFAARPDDDTLFDAIAGLTHEIRKFGLFNFMLSDGIALFAHASTLLHYIVRQAPFGKARLLDDDVMVDFAEVTTPSDRVAVIATLPLTRDESWSQLAVDELVMFREGNIVRHDRPENPVYMSAEEGLEIARAEGGSHHHHHH | soluble
MSLCRVLAVKPSSYYDWMNRNISDQQIHRNQCELLVKAAHTETRERYGVDRLQAHLRQQGHYVSQYMIRSIKEEYGIKCRRHKRFKMTTNSNHNKLVYLNVLDQQFDAKHPNESWVSDITYIWTNEGWLYLAGVKDLYTKELVGYAINKRMTADLVCRALNMAIKNKRPRQGLIVHSDRGSQYCSHAYHKIIEQHQFTGSMSAKGNCFDNAPIESFWGVLKNELVYHQDYKTRFEAISDITQYIELEYNEERLAKHCFAATQDKSCARSGAREGHHHHHH | soluble
MSLDAKLRYKAKKIKIVFFDIDDTLRNSKTGFIPTTIPTVFKQLREKGILTGIASGRGIFGVVPEIRDLKPDFFVTLNGAYIEDKKGQVIYQHQIEKSDVEEYISWAKQEGIEYGLVGSHDAKLSTRTDMMSEAINPIYPDLDVDPGFHEKEDIYQMWTFEDKGDDLHLPDSLSDKLRMVRWHQHSSDIVPISGSKATGVEKVVEHLGLKPEKVMVFGDGLNDLELFDYAGISVAMGISHDKIKEKADYITKTLEEDGIFDALEVFGMVEKELHFPQVDIETVEGPLATIKTNHGDLRIKLFPEHAPKTVANFVSLSKDGYYDGVIFHRIIKDFMIQGGDPTGTGMGGESIYGESFEDEFSEELYNIRGALSMANAGPNTNGSQFFIVQNQHLPYSKKEITRGGWPEPIAEIYANQGGTPHLDRRHTVFGQLADEASYAVLDVIAAVETGAMDKPVEDVVIETIEIEDEGHHHHHH | soluble
MSLDDRRLIAEVEARRADLVALTQDLVRIPTLNPPGRNYRALCDMLAARLAPQFEVELVRAHGAPGDSETYPRWNLIARRQGARDGDCVHFNSHHDVVEVGHGWTRDPFGAEVEGDRLYGRGACDMKGGLAASVIAAEAFLAVCPDFAGSIEISATADEESGGFGGVAYLARQGRFAHVQHVLIPEPLHKDRICLGHRGVWWAEVETQGRIAHGSMPFLGDSAIRHMGALLAEIEERLYPLLATRTTAMPVTPEGARQSTLNINSIHGGEPEPEPGYTGLPAPCVADRCRIVIDRRFLIEEDLDEVKAELRALAERLAEARPGFAFEIRDLFEVRPTLTDRDAPVVRSTAAAIERVLARQAEYVVSPGTYDQKHIDRIGKLKNCIAYGPGLLHLAHQPDEWVGIADMVDSAKVMALVLADLLAPEEGHHHHHH | soluble
MSLDISKKSLLTPAEAAKLLHVAPTTIRHWAQIGRLPFISTPGGHRRFDRNDILSLMSTPKINVKNDFSILIIEDDKEFADMLTQFLENLFPYAKIKIAYNPFDAGDLLHTVKPDVVMLDLMMVGMDGFSICHRIKSTPATANIIVIAMTGALTDDNVSRIVALGAETCFGKPLNFTLLEKTIKQLVEQKKATSEGHHHHHH | soluble
MSLDIVSHQKIRRFEAGTFQEIESSVATEYPLTIYVNDQELVTIVCTPEYLEDLVVGFLTSEGIVRGPRDINSVDIIEATGHAKVSANFVNKFNAKYRGKRYITSCCGKSRENFYFQSDASLVNVKQNGNLQLTTDMIFRLMEKFEQNSATFHQTGGVHNAALCSSAEIIYSRMDIGRHNALDKIYGRALQDGTSTEDKAIIFSGRISSEILVKTAKLGCGIILSRSAPTELAINMAEELNITTVGFIRGDRLNVYSGFERITEGHHHHHH | soluble
MSLDKHLLVKRTLGCVCAATLMGAALATHHDSLNTVKAEEKTVQVQKGLPSIDSLHYLSENSKKEFKEELSKAGQESQKVKEILAKAQQADKQAQELAKMKIPEKIPMKPLHGPLYGGYFRTWHDKTSDPTEKDKVNSMGELPKEVDLAFIFHDWTKDYSLFWKELATKHVPKLNKQGTRVIRTIPWRFLAGGDNSGIAEDTSKYPNTPEGNKALAKAIVDEYVYKYNLDGLDVDVEHDSIPKVDKKEDTAGVERSIQVFEEIGKLIGPKGVDKSRLFIMDSTYMADKNPLIERGAPYINLLLVQVYGSQGEKGGWEPVSNRPEKTMEERWQGYSKYIRPEQYMIGFSFYEENAQEGNLWYDINSRKDEDKANGINTDITGTRAERYARWQPKTGGVKGGIFSYAIDRDGVAHEGHHHHHH | soluble
MSLDKPRLQFSIREQVQQLLGGLAGLKNYQVPSKETIADNAYLKQMGVALDVLTKEVEKLKSDDGVSAEAMGDYLYRQVQWVNNIVPTQMDLNRLFATMNTAGIQLEQADILKAKLFKHIHTDKAQYDAMWVACEHLENYFERNVRKVFPNADWYHIEPEHLASFDAERFAAKDETSEALSGLSIAELASQVKASSIPDNTEQEKFETYDLDVETVYCRPIIKFPLLLIHAYRVYLALNDHNDIEPRLHSDRLLEIFDPLINGDEQSVKLFIETLWQVRYQFDRWVVKWVERDDATDAQLGLTYQSRSKSNDTYYINRTQKELTDIVLLQSVRNFTGERSAQYWLTPFLSGLIRSSIKQDSVALELLENIDNKMSLSVDTQKEASFALAEGIEPNCQSWQSQSTYFAKSLGTSFEHYWFQKLEYLIWKKMKASESSLPSEELNKFKKYRITSKNSVEHVHPQNDEYNSRLDCETLNSFGNLVLLSPGENSSYSNQDVDKKRIDFERKSHFDALKLREIFGVKGQGLWGKQQIDNHLEDMMAVFAQHYKEGHHHHHH | soluble
MSLDKPVIQIHTDNSSLIFRVADNGRLYQSYLGKKLNHEADISHLPQGTEAYITHGMEDYFEPAIHILHNDGNPSLLLKYVSHETKAVSQGVNETIITLGDDKYPVTVKLHYVTYPAEDIIKTYTEISHKEKKPVVLHQYASSMLHLNRAKYYLTEFSGDWAHEANISDQPLEFGKKVLDTKLGARANMFTPPFFQLSLDQLATENCGEVLVGTLGWTGNFRFTFEVDNKNELRIISGINPYASEYYLPAGVVFRTPDFYFTYSANGKGKASRNFHDWARRYQLKDGDETRMTLLNNWEATYFDFNEEKLIGLIGDAAGLGVDMFLLDDGWFANKYPRSSDHQGLGDWDETADKLPNGIGRLVEEATKKGIKFGLWIEPEMVNPKSELYEKHKDWVIHLPNRDEYYFRNQLVLDLSNPKVQDFVFGVVDDLMTKYPGIAFFKWDCNSPITNIYSSYLKEKQSHLYIDYVRGLYNVLERIKTKYPDLPMMLCSGGSGRIDYETLRYFTEFWPSDNTDPIERLFIQWGYSQLFPAKTLCAHVTTWNHDASIKFRTDVAMMGKLGFDIKLSDLNDNEKKFCRDAVTNYNHLKPVVLEGDMYRLVSPYSGNHTSTQYVGKDKKGAVVFAFDIYSRYGEKLLPVRLQGLDAGRQYRVKEINLMPGTNSEGHHHHHH | not soluble
MSLDNKRRFALVGTGNRGTTMWGRDLLAGWRGLVDLVAIADTNALRAERARTMIATNAPVYGNVDAMLAETRPDLVIVCTPDDTHDDIVVRALESGADVITEKPMSTTVEKIRRILDAEKRTGRRVDVSFNYRFAPTAARIKELLNAGEIGRVTSVDFHWYLDTRHGADYFRRWHAYAEHSGSLFVHKATHHFDLLNWYLDSDPEAVSAFADLQMYGRRGPFRGPRCKLCPHKSECDFYLDLEADPFLDSLYEEPSEIDSYFRDGCVFREDIDIPDTMVANIRYRNDVHVSYSLNTFQPIEGHHIAFNGTKGRIELRQYEDQPWETPPEDEILLVRNFPKGKPAMERITVPHFPGGHYGGDDRLRNTLFEPDAKDPLGQRAGARAGAMSVLCGIAALQSSRTGKIVRLADLMPELFTDGAQPMRERLKETCSREGHHHHHH | soluble
MSLDNLNLIVSLKDGGLLHFKRDEELGEINVFNFQEQGTLIPFLGFFGSGKQKDVVLDGVSSNSIVDALQIGGSGVVITLSVNKVLKLWNLDGHQNLSSLTIASDDNTWLPTIPSKYLKSYDQEDGKTIITLFINTKSGDSSKSMFVFKSFELESSNLHDLSDLSFQPELPNSLLFSSDVFYHESNFQNTIWFIQDYEVVGFGTSQLKYYILWKSNTSSILVEYTINPVNGAILSEGHHHHHH | not soluble
MSLDPVGPISDEETSYYVRLQYNGEILPLFTKIEGIEYKKATDIHNPLKASFIAGGGAFGYKMDDIRVDVEGLYSQLNKNDVTGAAFNPDTVADSLTAISGLVNVYYDIAIEDMPITPYVGVGVGAAYISTPLKDAVNDQKSKFGFAGQVKAGVSYDVTPEVKLYAGARYFGSFGAHFDKDTAAASKDKGELKVLYSTVGAEAGVAFNFEGHHHHHH | not soluble
MSLDQQSKEQLNIREMTKEDVPQVFDLERRSFNDSSWTIDAFYHEIEQNNFAKYFVLEFEQQIIGYLGLWIVIDQAQITTVAIDDNYRGYGLGQMLLKYGINYASHTCDVMSLEVRVNNKVAQHVYENLGFQYGGKRKNYYGEGEDAMVMWVNLNDEGHHHHHH | soluble
MSLDRQLWRQFPQVEPQLTALQDYLLRTVQLDNQPIHHKILALLKSGGKLLRPGYFYLFSTFGNAATPAQLQAGAAAIEILHVGTLIHDDVIDDSPTRRGVRTIQMTYGQRNAIYAGDFMFTVYFDQVLKSTTDRSLIQNHIDAMHRILQGELHQMDLNYREDITLDAYLNEIAGKTAELFALSCYQGAQLAGAPQSVIDRTRDIGIAIGCAYQMLDDILDYAGDPKRTQKPVLEDLRSGVYSLPLLLSLSHAPRDFHKLLKKKQAMTLEDIKHVQALVAQYDGVGAAKQLAQDYTDRALTLIQQLPVGSAQQSLEQLTRLLLRRDHEGHHHHHH | soluble
MSLDSACEGRFVNPITDICWSCIFPLSLGSIKVSQGKVPDTANPSMPIQICPAPAPLFRRIGLAIGYWEPMALTDVTRSPGCMVNLGFSLPAFGKTAQGTAKKDEKQVNGAFYHVHWYKYPLTYWLNIITSLGCLEGGDMDIAYLSEIDPTWTDSSLTTILNPEAVIFANPIAQGACAADAIASAFNMPLDVLFWCAGSQGSMYPFNGWVSNESSPLQSSLLVSERMAFKLHRQGMIMETIGKNNAVCNEYPSPILPKERWRYQMVNMYPDSGQCHPFGRSVMPWETGKNPPNTKKNFGYLMWRKRNCVFLEGHHHHHH | soluble
